Source: patent publication US20140274782A1, “AFFINITY REAGENTS AND METHODS FOR DETECTION, PURIFICATION, AND PROTEOMIC ANALYSIS OF METHYLATED PROTEINS” (The Board of Trustees of the Leland Stanford Junior …, priority 2013, published 2014)
One block for each molecule: values may come before it.

Experiments:
G9a and GLP = target: T1, G9a and GLP (Homo sapiens, UniProt Q96KQ7+Q9H9B1); assay: Triple SILAC pull-down after UNC0638 treatment of 293T cells, DMSO/UNC0638 ratio of protein captured by 3×MBT; assay type: cell-based; design: cells were treated for 24 hours with UNC0638 at 2.5 μM or DMSO vehicle control; endogenous in cells; host or cells: HEK 293T; conditions: for Relative to UNC0638 UNC Heavy / Relative to UNC0638 UNC Light: SILAC ratio DMSO/UNC0638 of protein pulled down with 3xMBT; for Relative to UNC0638 UNC Heavy: UNC0638 in heavy SILAC media; for Relative to UNC0638 UNC Light: UNC0638 in light SILAC media; for Relative to UNC0638 Average: average of UNC Light and UNC Heavy experiments;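 as to all read-outs here: mass spectrometry (Q-Exactive) SILAC quantitation, DMSO/UNC0638 ratio computed after subtracting 3×MBTD355N mutant pull-down background, only proteins with at least twofold 3×MBT over mutant signal considered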
T1 sequence (Q96KQ7 2-1210 limits assumed): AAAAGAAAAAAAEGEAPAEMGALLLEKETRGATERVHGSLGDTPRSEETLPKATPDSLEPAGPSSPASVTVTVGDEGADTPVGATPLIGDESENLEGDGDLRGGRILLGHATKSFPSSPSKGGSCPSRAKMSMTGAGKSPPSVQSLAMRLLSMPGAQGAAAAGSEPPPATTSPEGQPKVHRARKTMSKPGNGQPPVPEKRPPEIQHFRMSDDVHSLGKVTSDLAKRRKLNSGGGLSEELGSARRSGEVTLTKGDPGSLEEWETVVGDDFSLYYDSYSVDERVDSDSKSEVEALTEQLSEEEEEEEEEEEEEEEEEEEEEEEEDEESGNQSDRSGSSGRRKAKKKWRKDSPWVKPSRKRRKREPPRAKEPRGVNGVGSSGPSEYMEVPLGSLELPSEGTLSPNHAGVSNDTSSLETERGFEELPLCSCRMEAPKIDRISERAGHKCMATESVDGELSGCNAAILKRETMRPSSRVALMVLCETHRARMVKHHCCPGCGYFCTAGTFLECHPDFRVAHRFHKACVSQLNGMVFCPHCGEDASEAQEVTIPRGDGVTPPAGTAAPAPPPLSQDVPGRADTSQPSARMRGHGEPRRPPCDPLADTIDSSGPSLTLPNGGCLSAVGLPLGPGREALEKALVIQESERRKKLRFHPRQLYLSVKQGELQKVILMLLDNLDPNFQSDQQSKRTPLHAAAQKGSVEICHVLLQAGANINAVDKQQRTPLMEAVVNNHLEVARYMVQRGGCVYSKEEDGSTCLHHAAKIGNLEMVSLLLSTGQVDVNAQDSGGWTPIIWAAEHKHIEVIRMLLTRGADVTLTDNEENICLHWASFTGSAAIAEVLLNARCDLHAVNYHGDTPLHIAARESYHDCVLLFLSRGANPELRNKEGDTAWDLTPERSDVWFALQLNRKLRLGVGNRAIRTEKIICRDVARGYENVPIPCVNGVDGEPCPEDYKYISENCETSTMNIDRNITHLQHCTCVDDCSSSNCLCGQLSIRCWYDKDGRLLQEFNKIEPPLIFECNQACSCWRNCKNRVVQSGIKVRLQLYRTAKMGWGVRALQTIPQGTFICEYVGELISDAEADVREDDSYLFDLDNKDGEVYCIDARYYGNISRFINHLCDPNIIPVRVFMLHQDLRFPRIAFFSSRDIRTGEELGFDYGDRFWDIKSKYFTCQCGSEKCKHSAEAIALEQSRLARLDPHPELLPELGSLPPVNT
T1 sequence (Q9H9B1 2-1298 limits assumed): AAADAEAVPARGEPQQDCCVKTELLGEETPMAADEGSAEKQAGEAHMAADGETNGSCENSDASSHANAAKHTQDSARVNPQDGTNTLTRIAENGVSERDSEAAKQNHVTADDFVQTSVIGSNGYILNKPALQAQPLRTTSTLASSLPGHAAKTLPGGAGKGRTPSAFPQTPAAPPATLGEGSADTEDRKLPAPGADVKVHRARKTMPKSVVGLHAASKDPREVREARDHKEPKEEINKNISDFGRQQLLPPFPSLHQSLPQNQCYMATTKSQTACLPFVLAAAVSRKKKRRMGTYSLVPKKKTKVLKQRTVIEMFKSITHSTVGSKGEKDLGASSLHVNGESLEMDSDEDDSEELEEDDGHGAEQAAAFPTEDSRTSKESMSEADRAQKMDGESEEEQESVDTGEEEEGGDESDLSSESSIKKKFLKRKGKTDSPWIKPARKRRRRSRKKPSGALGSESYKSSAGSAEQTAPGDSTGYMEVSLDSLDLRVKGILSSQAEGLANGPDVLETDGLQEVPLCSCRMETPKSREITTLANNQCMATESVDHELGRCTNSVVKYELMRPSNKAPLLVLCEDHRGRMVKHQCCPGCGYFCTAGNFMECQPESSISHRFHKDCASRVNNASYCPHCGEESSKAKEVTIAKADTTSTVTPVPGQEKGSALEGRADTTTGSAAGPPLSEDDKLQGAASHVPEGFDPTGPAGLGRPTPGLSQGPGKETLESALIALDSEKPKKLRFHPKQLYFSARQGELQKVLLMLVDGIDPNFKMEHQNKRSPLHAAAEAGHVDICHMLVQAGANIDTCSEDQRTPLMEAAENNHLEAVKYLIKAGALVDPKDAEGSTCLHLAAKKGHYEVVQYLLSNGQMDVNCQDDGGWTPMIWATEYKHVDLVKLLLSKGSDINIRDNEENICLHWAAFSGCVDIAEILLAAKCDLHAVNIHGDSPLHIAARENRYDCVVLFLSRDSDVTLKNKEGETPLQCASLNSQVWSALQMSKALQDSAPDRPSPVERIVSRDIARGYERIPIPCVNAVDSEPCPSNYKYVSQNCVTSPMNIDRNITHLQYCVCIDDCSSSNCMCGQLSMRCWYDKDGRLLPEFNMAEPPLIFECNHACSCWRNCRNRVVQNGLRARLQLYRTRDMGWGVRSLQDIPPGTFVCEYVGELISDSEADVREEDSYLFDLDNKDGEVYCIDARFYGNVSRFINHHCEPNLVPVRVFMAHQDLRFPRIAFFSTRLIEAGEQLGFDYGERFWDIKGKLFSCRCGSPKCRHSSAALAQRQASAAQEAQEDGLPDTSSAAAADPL

3×MBT domain of L3MBTL1 = assay: Triple SILAC pull-down, 3xMBT/3xMBTD355N ratio (cytoplasmic, nuclear and chromatin fractions of 293T cells); assay type: binding, human; conditions: SILAC ratio, pull-down 3xMBT vs 3xMBTD355N; for 3xMBT/D355N UNC Heavy: experiment with UNC0638 in heavy SILAC media; for 3xMBT/D355N UNC Light: experiment with UNC0638 in light SILAC media;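 as to all read-outs here: proteins quantified with MaxQuant, requiring at least two unique peptides and quantification in both label directions, normalized to the mean of proteins from a digested loading control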

Relative to UNC0638 UNC Heavy (G9a and GLP): 0.17 log base 2
Relative to UNC0638 UNC Light (G9a and GLP): 0.24 log base 2
Relative to UNC0638 Average (G9a and GLP): 0.21 log base 2
B1: SEC23B (protein, UniProt Q15437 2-767, looked up)
Protein transport protein …: ATYLEFIQQNEERDGVRFSWNVWPSSRLEATRMVVPLACLLTPLKERPDLPPVQYEPVLCSRPTCKAVLNPLCQVDYRAKLWACNFCFQRNQFPPAYGGISEVNQPAELMPQFSTIEYVIQRGAQSPLIFLYVVDTCLEEDDLQALKESLQMSLSLLPPDALVGLITFGRMVQVHELSCEGISKSYVFRGTKDLTAKQIQDMLGLTKPAMPMQQARPAQPQEHPFASSRFLQPVHKIDMNLTDLLGELQRDPWPVTQGKRPLRSTGVALSIAVGLLEGTFPNTGARIMLFTGGPPTQGPGMVVGDELKIPIRSWHDIEKDNARFMKKATKHYEMLANRTAANGHCIDIYACALDQTGLLEMKCCANLTGGYMVMGDSFNTSLFKQTFQRIFTKDFNGDFRMAFGATLDVKTSRELKIAGAIGPCVSLNVKGPCVSENELGVGGTSQWKICGLDPTSTLGIYFEVVNQHNTPIPQGGRGAIQFVTHYQHSSTQRRIRVTTIARNWADVQSQLRHIEAAFDQEAAAVLMARLGVFRAESEEGPDVLRWLDRQLIRLCQKFGQYNKEDPTSFRLSDSFSLYPQFMFHLRRSPFLQVFNNSPDESSYYRHHFARQDLTQSLIMIQPILYSYSFHGPPEPVLLDSSSILADRILLMDTFFQIVIYLGETIAQWRKAGYQDMPEYENFKHLLQAPLDDAQEILQARFPMPRYINTEHGGSQARFLLSKVNPSQTHNNLYAWGQETGAPILTDDVSLQVFMDHLKKLAVSSAC
3xMBT/D355N UNC Heavy (3×MBT domain of L3MBTL1): 3.24 log base 2
3xMBT/D355N UNC Light (3×MBT domain of L3MBTL1): 3.16 log base 2

Relative to UNC0638 UNC Heavy (G9a and GLP): 0.61 log base 2
Relative to UNC0638 UNC Light (G9a and GLP): −0.18 log base 2
Relative to UNC0638 Average (G9a and GLP): 0.21 log base 2
B2: RFC1 (protein, UniProt P35251 1-1148, looked up)
Replication factor C subunit 1: MDIRKFFGVIPSGKKLVSETVKKNEKTKSDEETLKAKKGIKEIKVNSSRKEDDFKQKQPSKKKRIIYDSDSESEETLQVKNAKKPPEKLPVSSKPGKISRQDPVTYISETDEEDDFMCKKAASKSKENGRSTNSHLGTSNMKKNEENTKTKNKPLSPIKLTPTSVLDYFGTGSVQRSNKKMVASKRKELSQNTDESGLNDEAIAKQLQLDEDAELERQLHEDEEFARTLAMLDEEPKTKKARKDTEAGETFSSVQANLSKAEKHKYPHKVKTAQVSDERKSYSPRKQSKYESSKESQQHSKSSADKIGEVSSPKASSKLAIMKRKEESSYKEIEPVASKRKENAIKLKGETKTPKKTKSSPAKKESVSPEDSEKKRTNYQAYRSYLNREGPKALGSKEIPKGAENCLEGLIFVITGVLESIERDEAKSLIERYGGKVTGNVSKKTNYLVMGRDSGQSKSDKAAALGTKIIDEDGLLNLIRTMPGKKSKYEIAVETEMKKESKLERTPQKNVQGKRKISPSKKESESKKSRPTSKRDSLAKTIKKETDVFWKSLDFKEQVAEETSGDSKARNLADDSSENKVENLLWVDKYKPTSLKTIIGQQGDQSCANKLLRWLRNWQKSSSEDKKHAAKFGKFSGKDDGSSFKAALLSGPPGVGKTTTASLVCQELGYSYVELNASDTRSKSSLKAIVAESLNNTSIKGFYSNGAASSVSTKHALIMDEVDGMAGNEDRGGIQELIGLIKHTKIPIICMCNDRNHPKIRSLVHYCFDLRFQRPRVEQIKGAMMSIAFKEGLKIPPPAMNEIILGANQDIRQVLHNLSMWCARSKALTYDQAKADSHRAKKDIKMGPFDVARKVFAAGEETAHMSLVDKSDLFFHDYSIAPLFVQENYIHVKPVAAGGDMKKHLMLLSRAADSICDGDLVDSQIRSKQNWSLLPAQAIYASVLPGELMRGYMTQFPTFPSWLGKHSSTGKHDRIVQDLALHMSLRTYSSKRTVNMDYLSLLRDALVQPLTSQGVDGVQDVVALMDTYYLMKEDFENIMEISSWGGKPSPFSKLDPKVKAAFTRAYNKEAHLTPYSLQAIKASRHSTSPSLDSEYNEELNEDDSQSDEKDQDAIETDAMIKKKTKSSKPSKPEKDKEPRKGKGKSSKK
3xMBT/D355N UNC Heavy (3×MBT domain of L3MBTL1): 1.29 log base 2
3xMBT/D355N UNC Light (3×MBT domain of L3MBTL1): −1.32 log base 2

Relative to UNC0638 UNC Heavy (G9a and GLP): 0.31 log base 2
Relative to UNC0638 UNC Light (G9a and GLP): 0.12 log base 2
Relative to UNC0638 Average (G9a and GLP): 0.21 log base 2
B3: ATXN2L (protein, UniProt Q8WWM7 1-1075, looked up)
Ataxin-2-like protein: MLKPQPLQQPSQPQQPPPTQQAVARRPPGGTSPPNGGLPGPLATSAAPPGPPAAASPCLGPVAAAGSGLRRGAEGILAPQPPPPQQHQERPGAAAIGSARGQSTGKGPPQSPVFEGVYNNSRMLHFLTAVVGSTCDVKVKNGTTYEGIFKTLSSKFELAVDAVHRKASEPAGGPRREDIVDTMVFKPSDVMLVHFRNVDFNYATKDKFTDSAIAMNSKVNGEHKEKVLQRWEGGDSNSDDYDLESDMSNGWDPNEMFKFNEENYGVKTTYDSSLSSYTVPLEKDNSEEFRQRELRAAQLAREIESSPQYRLRIAMENDDGRTEEEKHSAVQRQGSGRESPSLASREGKYIPLPQRVREGPRGGVRCSSSRGGRPGLSSLPPRGPHHLDNSSPGPGSEARGINGGPSRMSPKAQRPLRGAKTLSSPSNRPSGETSVPPPPAVGRMYPPRSPKSAAPAPISASCPEPPIGSAVPTSSASIPVTSSVSDPGVGSISPASPKISLAPTDVKELSTKEPGRTLEPQELARIAGKVPGLQNEQKRFQLEELRKFGAQFKLQPSSSPENSLDPFPPRILKEEPKGKEKEVDGLLTSEPMGSPVSSKTESVSDKEDKPPLAPSGGTEGPEQPPPPCPSQTGSPPVGLIKGEDKDEGPVAEQVKKSTLNPNAKEFNPTKPLLSVNKSTSTPTSPGPRTHSTPSIPVLTAGQSGLYSPQYISYIPQIHMGPAVQAPQMYPYPVSNSVPGQQGKYRGAKGSLPPQRSDQHQPASAPPMMQAAAAAGPPLVAATPYSSYIPYNPQQFPGQPAMMQPMAHYPSQPVFAPMLQSNPRMLTSGSHPQAIVSSSTPQYPSAEQPTPQALYATVHQSYPHHATQLHAHQPQPATTPTGSQPQSQHAAPSPVQHQAGQAPHLGSGQPQQNLYHPGALTGTPPSLPPGPSAQSPQSSFPQPAAVYAIHHQQLPHGFTNMAHVTQAHVQTGITAAPPPHPGAPHPPQVMLLHPPQSHGGPPQGAVPQSGVPALSASTPSPYPYIGHPQGEQPGQAPGFPGGADDRIREFSLAGGIWHGRAEGLQVGQDARVLGGE
3xMBT/D355N UNC Heavy (3×MBT domain of L3MBTL1): 2.64 log base 2
3xMBT/D355N UNC Light (3×MBT domain of L3MBTL1): 2.66 log base 2
